Drawing on publication PMC4253602 (Molecular oncology, 2014), this text covers Kd for 1 substance.

Holding throughout (assay): SPR
(SPR reads the build-up and loss of mass on a sensor chip optically.)

Assay [1] deals with ARN20-FY (biotinylated peptide) (human).
Assay [2] has as its target ARN20-HY (biotinylated peptide) (human).
Assay [3] deals with ARN20-LY (biotinylated peptide) (human).
The target in assay [4] is ARN20-WY (biotinylated peptide) (human).
Assay [5] deals with C320-HY (biotinylated peptide).
Another assay deals with C320-LY (Biotin-C320).
Assay [6] deals with C320-WY (biotinylated peptide).
For assay [7], the target named is C320-YY (biotinylated peptide).

“wild-type AR-DBD-LBD (domain or fragment)”: the Kd (as a rule, the equilibrium constant for the complex coming apart) in assay [1] was determined as 38 nM; in assay [2], 140000 nM; in assay [3] it was 100 nM; in assay [4], 500 nM; in assay [5], 38000 nM; in the assay with C320-LY (Biotin-C320), 30 nM. Further, the Kd in assay [6] was 140 nM; in assay [7], 3800 nM.
